Data reported in publication PMC6239180.

What was measured:
[1] = biological target: hPcf11 (CF II subunit);hClp1 (CF II subunit or alone) (human;human) (UniProt O94913+Q92989); assay: filter binding
[2] = biological target: T1, hClp1 (CF II subunit or alone) (human) (UniProt Q92989); assay: filter binding
T1 sequence: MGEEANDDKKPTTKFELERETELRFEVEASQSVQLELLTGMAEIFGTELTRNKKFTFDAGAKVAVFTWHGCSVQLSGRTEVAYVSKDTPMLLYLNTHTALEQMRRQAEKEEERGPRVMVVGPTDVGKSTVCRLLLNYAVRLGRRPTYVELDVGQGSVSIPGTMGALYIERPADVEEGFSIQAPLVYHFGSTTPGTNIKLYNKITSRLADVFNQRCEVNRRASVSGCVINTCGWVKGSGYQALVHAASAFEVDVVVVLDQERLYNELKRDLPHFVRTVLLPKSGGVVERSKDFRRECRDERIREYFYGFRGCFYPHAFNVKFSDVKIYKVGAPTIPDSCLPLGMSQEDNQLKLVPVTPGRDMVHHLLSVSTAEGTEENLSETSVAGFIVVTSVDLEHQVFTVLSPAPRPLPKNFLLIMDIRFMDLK

Chain of hPcf11 (CF II subunit);hClp1 (CF II subunit or alone) (human;human) (O94913 whole entry, one chain of several): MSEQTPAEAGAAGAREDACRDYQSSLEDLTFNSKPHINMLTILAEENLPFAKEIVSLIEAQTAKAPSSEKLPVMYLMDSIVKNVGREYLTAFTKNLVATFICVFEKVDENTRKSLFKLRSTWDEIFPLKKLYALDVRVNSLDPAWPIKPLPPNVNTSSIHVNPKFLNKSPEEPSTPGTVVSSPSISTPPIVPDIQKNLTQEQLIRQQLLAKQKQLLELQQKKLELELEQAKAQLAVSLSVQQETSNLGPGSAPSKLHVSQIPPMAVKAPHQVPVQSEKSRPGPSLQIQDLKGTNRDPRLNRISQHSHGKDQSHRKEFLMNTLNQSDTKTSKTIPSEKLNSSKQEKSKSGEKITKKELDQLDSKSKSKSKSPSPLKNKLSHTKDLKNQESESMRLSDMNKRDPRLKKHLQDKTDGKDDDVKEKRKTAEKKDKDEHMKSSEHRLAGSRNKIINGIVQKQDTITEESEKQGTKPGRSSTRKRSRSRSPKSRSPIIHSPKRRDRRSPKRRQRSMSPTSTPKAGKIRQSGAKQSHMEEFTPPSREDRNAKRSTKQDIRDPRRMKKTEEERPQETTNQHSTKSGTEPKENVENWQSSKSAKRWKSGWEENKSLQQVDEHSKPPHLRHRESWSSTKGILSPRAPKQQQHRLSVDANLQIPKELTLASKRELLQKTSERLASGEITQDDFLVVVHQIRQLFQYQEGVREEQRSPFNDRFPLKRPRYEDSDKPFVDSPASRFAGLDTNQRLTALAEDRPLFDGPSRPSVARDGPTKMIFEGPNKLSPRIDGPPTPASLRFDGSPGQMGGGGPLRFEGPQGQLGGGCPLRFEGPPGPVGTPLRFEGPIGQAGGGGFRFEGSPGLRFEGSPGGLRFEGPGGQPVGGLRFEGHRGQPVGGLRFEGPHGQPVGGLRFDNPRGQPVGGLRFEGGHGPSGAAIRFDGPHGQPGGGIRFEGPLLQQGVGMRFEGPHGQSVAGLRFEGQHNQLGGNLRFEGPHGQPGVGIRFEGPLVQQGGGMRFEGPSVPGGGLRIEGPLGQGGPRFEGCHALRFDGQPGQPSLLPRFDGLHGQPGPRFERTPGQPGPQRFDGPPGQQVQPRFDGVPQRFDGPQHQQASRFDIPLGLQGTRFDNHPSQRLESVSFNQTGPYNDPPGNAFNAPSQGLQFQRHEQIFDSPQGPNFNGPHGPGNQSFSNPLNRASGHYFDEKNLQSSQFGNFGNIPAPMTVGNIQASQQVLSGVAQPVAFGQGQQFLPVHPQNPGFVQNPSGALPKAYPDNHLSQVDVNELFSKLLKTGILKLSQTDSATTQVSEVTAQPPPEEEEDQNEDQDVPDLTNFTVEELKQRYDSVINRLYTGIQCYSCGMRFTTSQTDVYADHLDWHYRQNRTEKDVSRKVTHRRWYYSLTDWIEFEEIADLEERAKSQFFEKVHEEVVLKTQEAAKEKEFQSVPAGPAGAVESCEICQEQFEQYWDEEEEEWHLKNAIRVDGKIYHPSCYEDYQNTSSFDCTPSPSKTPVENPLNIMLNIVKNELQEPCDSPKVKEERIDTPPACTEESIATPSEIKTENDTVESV

SV40 late RNA
K half [1]: 0.4 nM | K half [2]: 140 nM

L3 RNA
K half [1]: 0.9 nM
